Assay results reported in patent US20020155547A1 (Biogen, published 2002).

T1: IFNAR2/Fc fusion protein (extracellular domain of the human IFNAR2 receptor chain fused to the hinge, CH2 and … (human, UniProt P48551 27-243))
T1 construct: extracellular domain; also called IFNAR2-ectodomain/Fc fusion protein; IFNAR/Fc; not shown: human IgG1 heavy chain constant region: hinge, CH2 and CH3 domains
T1 sequence (looked up): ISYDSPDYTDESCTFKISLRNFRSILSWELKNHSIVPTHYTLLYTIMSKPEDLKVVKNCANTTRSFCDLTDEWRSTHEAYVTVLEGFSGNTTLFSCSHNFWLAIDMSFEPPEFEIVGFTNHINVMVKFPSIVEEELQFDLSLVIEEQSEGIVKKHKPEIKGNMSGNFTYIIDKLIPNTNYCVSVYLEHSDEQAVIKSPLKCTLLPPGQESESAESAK

T2: type I interferon cell surface receptor complex (IFNAR1/2 complex) expressed on Daudi Burkitt's lymphoma cells (human, UniProt P17181 28-557; P48551 27-515)
T2 construct: whole, on cells; Both chains together comprise the receptor for interferon-beta on the cells of the FACS assay; also called IFNAR1/2 cell surface receptor; cognate receptor on Daudi cells
T2 sequence (looked up) 1: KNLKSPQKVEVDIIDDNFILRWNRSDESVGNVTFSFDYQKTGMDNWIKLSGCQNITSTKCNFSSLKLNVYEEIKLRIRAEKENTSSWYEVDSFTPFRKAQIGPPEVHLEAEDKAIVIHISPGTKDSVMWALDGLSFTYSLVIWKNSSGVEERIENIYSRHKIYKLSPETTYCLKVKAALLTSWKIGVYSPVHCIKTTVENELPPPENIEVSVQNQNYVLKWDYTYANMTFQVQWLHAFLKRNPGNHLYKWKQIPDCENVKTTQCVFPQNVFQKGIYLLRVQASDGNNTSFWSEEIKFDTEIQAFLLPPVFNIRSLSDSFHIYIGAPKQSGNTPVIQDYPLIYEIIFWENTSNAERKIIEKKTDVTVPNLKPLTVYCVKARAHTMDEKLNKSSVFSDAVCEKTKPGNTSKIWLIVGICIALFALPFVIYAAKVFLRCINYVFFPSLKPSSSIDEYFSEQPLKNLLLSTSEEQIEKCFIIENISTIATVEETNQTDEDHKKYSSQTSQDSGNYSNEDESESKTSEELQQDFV
T2 sequence (looked up) 2: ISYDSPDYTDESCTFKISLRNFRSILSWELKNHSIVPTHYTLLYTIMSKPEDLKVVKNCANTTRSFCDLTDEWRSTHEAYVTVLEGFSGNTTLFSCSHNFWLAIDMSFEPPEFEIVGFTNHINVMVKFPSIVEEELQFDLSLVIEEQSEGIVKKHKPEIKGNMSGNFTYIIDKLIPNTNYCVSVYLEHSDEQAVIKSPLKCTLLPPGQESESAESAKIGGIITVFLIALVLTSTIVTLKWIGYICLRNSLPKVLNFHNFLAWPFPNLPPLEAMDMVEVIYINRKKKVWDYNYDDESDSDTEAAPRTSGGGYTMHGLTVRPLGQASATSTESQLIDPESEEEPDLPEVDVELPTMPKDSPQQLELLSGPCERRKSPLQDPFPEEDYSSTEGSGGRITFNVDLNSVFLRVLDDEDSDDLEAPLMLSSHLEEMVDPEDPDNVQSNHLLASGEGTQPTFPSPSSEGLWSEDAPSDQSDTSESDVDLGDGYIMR


How the values were obtained:
[1] = molecular target: T1, IFNAR2/Fc fusion protein (extracellular …); assay: ELISA on captured IFNAR2-Fc; wild type is the reference (100 %), its EC50 is not given
Protocol: The receptor binding properties of the Interferon-beta mutants described in C were assessed using two different binding assays. One assay measured binding of the interferon-beta mutants to a fusion protein, IFNAR2/Fc, comprising the extracellular domain of the human IFNAR2 receptor chain fused to part of the constant region of a human IgG. IFNAR2-Fc was expressed in chinese hamster ovary (CHO) cells and purified by protein A sepharose affinity chromatography according to the instructions of the manufacturer (Pierce Chem. Co., Rockford, Ill., catalog #20334). The binding of interferon-beta mutants to IFNAR2-Fc was measured in an ELISA format assay. […] Binding of the interferon-beta mutants to IFNAR2-Fc was measured by adding 50 μl/well mutant interferon-beta in conditioned media, serially diluted in Dulbecco's Modified Eagle's Medium (DMEM) supplemented with 10% fetal bovine serum, and incubating for 2 hours at 4° C. […] After washing, interferon-beta bound to the plates was detected by adding 50 μl/well of a cocktail consisting of a 1:1000 dilution of a rabbit polyclonal anti-interferon antibody (#447, Biogen, Inc.) plus horseradish peroxidase (HRP)-labelled donkey anti-rabbit IgG (Jackson ImmunoResearch), and incubating for 15 minutes at 4° C. […]

[2] = molecular target: T2, type I interferon cell surface receptor …; assay: FACS receptor binding assay on Daudi cells; wild type is the reference (100 %), its value is not given
Protocol: A second receptor binding assay was used to measure the affinity with which the interferon-beta mutants bound to Daudi cells expressing both receptor chains, IFNAR1 and IFNAR2, which together comprise the receptor for interferon-beta. This FACS-based assay used a blocking monoclonal antibody directed against the extracellular domain of IFNAR1, EA12 (Biogen, Inc.), to distinguish unoccupied (free) receptor from receptor to which interferon-beta was bound. Daudi cells (20 μl at 2.5×10⁷ cells/ml) were placed in 96-well V-bottom ELISA plates, and incubated for 1 hour at 4° C. with various concentrations of interferon-beta mutant (20 μl in FACS buffer; 5% FBS, 0.1% NaN₃ in PBS). Desirable serial dilutions of interferon-beta mutants ranged from 0.5 μM down to 0.5 pM. To each well was added 100 ng of biotinylated murine anti-IFNAR1 monoclonal antibody EA12 (10 μl), and the plates incubated for an additional 2 minutes at room temperature before being washed twice with FACS buffer (4° C.). […] The samples were then analyzed by flow cytometry on a FACScan (Becton Dickinson). […]

[3] = molecular target: T1, IFNAR2/Fc fusion protein (extracellular …); assay: ELISA on captured IFNAR2-Fc
Protocol: FIG. 3. Binding of alanine substituted interferon-beta mutants to a dimeric fusion protein comprised of the extracellular domain of the type I interferon receptor chain, IFNAR2/Fc. The binding affinities of the alanine substituted IFN mutants (A1-E) for the IFNAR2 receptor chain were determined as described in Example 1 (subsection D). The histogram presents their binding affinities in this assay relative to wild type his-IFN-beta (% w.t.). The % w. t. values were calculated as the (affinity of wild type his-IFN-beta)/(affinity of mutant IFN-beta)×100. The % w. t. (x) for multiple assays (n=3) and an average % w.t. (x) for the experimental set are shown.
(§1) The receptor binding properties of the Interferon-beta mutants described in C were assessed using two different binding assays. One assay measured binding of the interferon-beta mutants to a fusion protein, IFNAR2/Fc, comprising the extracellular domain of the human IFNAR2 receptor chain fused to part of the constant region of a human IgG. IFNAR2-Fc was expressed in chinese hamster ovary (CHO) cells and purified by protein A sepharose affinity chromatography according to the instructions of the manufacturer (Pierce Chem. Co., Rockford, Ill., catalog #20334). The binding of interferon-beta mutants to IFNAR2-Fc was measured in an ELISA format assay. ELISA plates were prepared by coating flat-bottomed 96 well plates overnight at 4° C. with 50 μl/well of mouse anti-human IgG1 monoclonal antibody (CDG5-AA9, Biogen, Inc.) at 10 μg/ml in coating buffer (50 mM NaHCO₃, 0.2 mM MgCl₂, 0.2 mM CaCl₂, pH 9.6). Plates were washed twice with PBS containing 0.05% Tween-20, and blocked with 0.5% non-fat dry milk in PBS for 1 hour at room temperature. After two more washes, 50 μl of 1 μg/ml IFNAR2-Fc in 0.5% milk in PBS containing 0.05% Tween-20 was added to each well and incubated for 1 hour at room temperature, and the plates were then washed twice more.

[4] = molecular target: T1, IFNAR2/Fc fusion protein (extracellular …); assay: ELISA, IFNAR2-Fc captured on anti-human IgG1 antibody, mutant in conditioned medium
Protocol: as §1, with “more. Binding of the interferon-beta mutants to IFNAR2-Fc was measured by adding 50 μl/well mutant interferon-beta in conditioned media, serially diluted in Dulbecco's Modified Eagle's Medium (DMEM) supplemented with 10% fetal bovine serum, and incubating for 2 hours at 4° C. Dilutions of interferon-beta mutant typically ranged from approximately 1 μM down to 10 pM. After washing, interferon-beta bound to the plates was detected by adding 50 μl/well of a cocktail consisting of a 1:1000 dilution of a rabbit polyclonal anti-interferon antibody (#447, Biogen, Inc.) plus horseradish peroxidase (HRP)-labelled donkey anti-rabbit IgG (Jackson ImmunoResearch), and incubating for 15 minutes at 4° C. After two washes, HRP substrate was added, and the plate was incubated at 4° C. before being read on an ELISA plate reader at an absorbance of 450 nm. Data were plotted as absorbance versus the concentration of mutant interferon-beta, and the affinity for the binding of the mutant interferon-beta to IFNAR2-Fc was determined by fitting the data to a simple hyperbolic binding equation.” for “more.”

Binder	binding result [1]	binding result [2]	concentration tested relative to the w.t. his-IFN-beta EC50 [3] [fold]	binding result [4]
histidine tagged wild-type interferon-beta-1a (ligand, glycosylated at Asn 80 of the interferon-beta moiety (expressed in human EBNA 293 cells), Tested as conditioned medium of transfected EBNA 293 cells; also called his IFN-beta; His6-tagged) SGGHHHHHHSSGDDDDKMSYNLLGFLQRSSNFQCQKLLWQLNGRLEYCLKDRMNFDIPEEIKQLQQFQKEDAALTIYEMLQNIFAIFRQDSSSTGWNETIVENLLANVYHQINHLKTVLEEKLEKEDFTRGKLMSSLHLKRYYGRILHYLKAKEYSHCAWTIVRVEILRNFYFINRLTGYLRN	binds	binds		
his tagged interferon-beta alanine substitution mutant AB2 (ligand, glycosylated at Asn 80 of the interferon-beta moiety) SGGHHHHHHSSGDDDDKMSYNLLGFLQRSSNFQCQKLLWQLNGRLEYCLKDRAAFAIPAEIKQLQQFQKEDAALTIYEMLQNIFAIFRQDSSSTGWNETIVENLLANVYHQINHLKTVLEEKLEKEDFTRGKLMSSLHLKRYYGRILHYLKAKEYSHCAWTIVRVEILRNFYFINRLTGYLRN			500	no binding
his tagged interferon-beta alanine substitution mutant E (ligand, glycosylated at Asn 80 of the interferon-beta moiety, also called E helix) SGGHHHHHHSSGDDDDKMSYNLLGFLQRSSNFQCQKLLWQLNGRLEYCLKDRMNFDIPEEIKQLQQFQKEDAALTIYEMLQNIFAIFRQDSSSTGWNETIVENLLANVYHQINHLKTVLEEKLEKEDFTRGKLMSSLHLKRYYGRILHYLKAKEYSHCAWTIVRAEILANFAFIARLTGYLRN			500	no binding
his tagged interferon-beta alanine substitution mutant A2 (ligand, glycosylated at Asn 80 of the interferon-beta moiety, also called A2 helix) SGGHHHHHHSSGDDDDKMSYNLLGFLQRSSNAACAALLAALNGRLEYCLKDRMNFDIPEEIKQLQQFQKEDAALTIYEMLQNIFAIFRQDSSSTGWNETIVENLLANVYHQINHLKTVLEEKLEKEDFTRGKLMSSLHLKRYYGRILHYLKAKEYSHCAWTIVRVEILRNFYFINRLTGYLRN			500	no binding
his tagged interferon-beta alanine substitution mutant AB1 (ligand, glycosylated at Asn 80 of the interferon-beta moiety) SGGHHHHHHSSGDDDDKMSYNLLGFLQRSSNFQCQKLLWQLNGRAAACAADRMNFDIPEEIKQLQQFQKEDAALTIYEMLQNIFAIFRQDSSSTGWNETIVENLLANVYHQINHLKTVLEEKLEKEDFTRGKLMSSLHLKRYYGRILHYLKAKEYSHCAWTIVRVEILRNFYFINRLTGYLRN			500	no binding
